Test results taken from US20240190986A1 (ZHEJIANG NANOMAB TECHNOLOGY CENTER, published 2024).

Experiments:
MSLN.Fc protein = molecular target: T1, MSLN.Fc protein (human, UniProt Q13421 296-598, limits assumed); experiment: ELISA, antigen coated, TG1 supernatant
T1 construct: also called MSLN·hFc; MSLN protein; not shown: human IgG Fc fragment

MD50 protein = molecular target: T2, MD50 protein; experiment: ELISA, antigen coated, TG1 supernatant
T2 construct: range 487-580; also called proximal membrane fragment of mesothelin

MSLN·His protein [1] = molecular target: T3, MSLN·His protein (human, UniProt Q13421 296-580, limits assumed); experiment: SPR (Biacore), antibody captured on protein A, MSLN·His as analyte
T3 construct: Bought protein; also called human MSLN·His antigen; not shown: His tag
Description: (1) Detection of affinity at protein level: the binding kinetics and affinity of heavy chain antibody to human MSLN·His antigen were determined using surface plasmon resonance (SPR). The purified antibody was flowed through the sensor chips pre-immobilized with protein A, and the antibody was captured by protein A. Then five different concentrations of MSLN·His protein were used as the mobile phase, and the binding time and dissociation time were 30 min and 60 min, respectively. Biacore Evaluation Software 2.0 (GE) was used to analyze the binding rate (kon, or ka), dissociation rate (koff, or kd) and equilibrium constant (KD). The rabbit antibody YP218, which binds to segment III of mesothelin, was selected as a positive control (Zhang et al., Sci Rep 2015, 21; 5:9928).

[2] = molecular target: T4, MSLN on SKOV3 and Aspc-1 tumor cells (UniProt Q13421 296-598); experiment: flow cytometry on Aspc-1 tumor cells, anti-human IgG PE secondary, fitted curve
T4 construct: whole, on cells; Endogenous mesothelin of tumor cell lines; also called SKOV3 tumor cell line; AsPC-1 tumor cell line

[3] = molecular target: T5, segment III of MSLN expressed on HEK293T cells (UniProt Q13421 487-598, limits assumed); experiment: flow cytometry on HEK293T cells expressing MSLN segment III, anti-human IgG PE secondary, fitted curve
T5 construct: domain: segment III of MSLN; also called HEK293T MSLN-III cells; MSLN segment III protein overexpressing cell line

[4] = molecular target: T4, MSLN on SKOV3 and Aspc-1 tumor cells; experiment: flow cytometry on SKOV3 tumor cells, anti-human IgG PE secondary, fitted curve
MSLN·His protein [5] = molecular target: T3, MSLN·His protein; experiment: ELISA, antigen coated, TG1 supernatant

T2 sequence (Q13421 495-588): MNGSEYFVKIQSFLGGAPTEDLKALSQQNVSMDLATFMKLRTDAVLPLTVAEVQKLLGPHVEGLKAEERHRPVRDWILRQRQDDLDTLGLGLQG
T4 sequence (Q13421 other isoform, or with tags, fused parts or gaps limits assumed): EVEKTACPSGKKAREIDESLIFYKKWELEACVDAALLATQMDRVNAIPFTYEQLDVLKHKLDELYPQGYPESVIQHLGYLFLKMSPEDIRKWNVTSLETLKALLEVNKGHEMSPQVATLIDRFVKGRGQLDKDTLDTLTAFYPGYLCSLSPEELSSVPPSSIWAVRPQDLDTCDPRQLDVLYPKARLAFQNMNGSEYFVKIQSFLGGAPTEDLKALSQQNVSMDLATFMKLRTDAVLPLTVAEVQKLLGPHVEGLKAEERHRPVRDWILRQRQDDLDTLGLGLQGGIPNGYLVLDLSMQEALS
T5 sequence (Q13421 495-606 limits assumed): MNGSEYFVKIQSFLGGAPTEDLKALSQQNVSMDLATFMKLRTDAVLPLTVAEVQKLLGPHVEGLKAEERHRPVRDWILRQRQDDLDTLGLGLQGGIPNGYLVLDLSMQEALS
T3 sequence (Q13421 other isoform, or with tags, fused parts or gaps limits assumed): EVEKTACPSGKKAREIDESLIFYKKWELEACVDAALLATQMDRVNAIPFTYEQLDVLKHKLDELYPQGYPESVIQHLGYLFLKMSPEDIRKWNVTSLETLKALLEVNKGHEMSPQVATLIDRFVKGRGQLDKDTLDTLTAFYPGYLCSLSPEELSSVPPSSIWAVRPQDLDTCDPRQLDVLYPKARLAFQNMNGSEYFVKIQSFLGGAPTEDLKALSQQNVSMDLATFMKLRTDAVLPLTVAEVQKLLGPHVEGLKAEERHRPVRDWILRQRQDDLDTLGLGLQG

| ELISA (OD450) (MSLN.Fc protein) | ELISA (OD450) (MD50 protein) | Kd (MSLN·His protein [1]) [nM] | koff (MSLN·His protein [1]) [s⁻¹] | kon (MSLN·His protein [1]) [M⁻¹ s⁻¹] | EC50 [2] [nM] | EC50 [3] [nM] | EC50 [4] [nM] | ELISA (OD450) (MSLN·His protein [5]) | Binder |
| --- | --- | --- | --- | --- | --- | --- | --- | --- | --- |
| 1.45 | 1.78 |  |  |  |  |  |  |  | M224 (VHH, Nanoantibody in TG1 supernatant in the screening ELISA; also called clone M224) VHH: QVQLVESGGGLVQPGGSLRLSCAASGFTFHYYAIGWFRQAPGKEREGVSCISSSGDSTWFSDSVKGRFTVSRDNAKNIVHLQMNNLKPEDTAVYYCAGTTRSGYVCYDAEPYDSWGQGTQVTVSS |
|  |  | 0.07 | 2.35e-05 | 359000 | 3.59 | 3.39 | 1.36 |  | M344-IgG4 (antibody, V domains shown, also called M344 heavy chain antibody) VH: QVQLVESGGGLVQSGGSLRLSCVASGSAFSFDAMGWYRQFSATRRERQLVVATSRDGRTYYADSVKGRFTATRDNSKNSLYLEMNSLKPEDTAIYYCAAGDDPKNYSWGQGTQVTVSS |
| 2.22 | 2.08 |  |  |  |  |  |  |  | M344 (VHH, Nanoantibody in TG1 supernatant in the screening ELISA; also called clone M344) VHH: QVQLVESGGGLVQSGGSLRLSCVASGSAFSFDAMGWYRQFSATRRERQLVVATSRDGRTYYADSVKGRFTATRDNSKNSLYLEMNSLKPEDTAIYYCAAGDDPKNYSWGQGTQVTVSS |
| 1.1 | 1.81 |  |  |  |  |  |  |  | M004 (VHH, Nanoantibody in TG1 supernatant in the screening ELISA; also called clone M004) VHH: EVQLVESGGGLVQAGGSLRLSCAASESISSIAYMGWYRRISEKERNLVATISSTGSTYYADSVKGRFTISRDNAKNTMYLQMNRLKPEDTAIYYCAASNKAYNDYDPDWGQGTQVTVSS |
| 1.36 | 1.19 |  |  |  |  |  |  |  | M169 (VHH, Nanoantibody in TG1 supernatant in the screening ELISA; also called clone M169) VHH: EVQLVESGGGTVQPGESLRLSCEASGAVSTINAMGWYRQTPEMRKLVATMGSGGNTYYADSVKGRFTISRDFAGNTVDLQMNDLKPEDTGVYFCAADKFGADIKEVAYWGKGTLVTVSS |
| 1.95 | 0.823 |  |  |  |  |  |  |  | M210 (VHH, Nanoantibody in TG1 supernatant in the screening ELISA; also called clone M210) VHH: QVQLVESGGGLVQPGGSLRLSCAASGITLDNYAIAWFRQAPGKKREGVSCISSNGNTYYQPSVKGRFTIARDNAKNTVYLHMNNLNPEDTAVYYCQVGQFSSSTTPVQAMSVMSLYADWGQGTQVTVSS |
|  |  | 0.12 | 9.58e-05 | 826000 | 4.25 | 3.91 | 1.63 |  | M119-IgG4 (antibody, V domains shown, also called M119 heavy chain antibody) VH: EVQLVESGGGLVQPGGSLRLSCVASGSDLSFDAMGWYRQFSATVRERQLVVATSRDGRIYYGDSVKGRFTASRDNLKNSVDLEMNNLKPEDTAIYYCAAGDDPKNYDWGPGTQVTVSS |
|  |  | 0.49 | 0.000429 | 882000 | 5.31 | 4.95 | 1.62 |  | M003-IgG4 (antibody, V domains shown, also called M003 heavy chain antibody) VH: QVQLVESGGGLVQAGGSLRLSCTASGNIFSINAMGWYRQPPGKEWERELVATISSTNSDNTYYKESVKGRFTISTNTAKNTWYLQMNSLKPEDTAMYYCAAENFDRKDRYWAQGTQVTVSS |
|  |  | 2.1 | 7.5e-05 | 53700 | 17.4 | 10.6 | 0.512 |  | M044-IgG4 (antibody, V domains shown, also called M044 heavy chain antibody) VH: QVQVVESGGGFVQAGGSLRLSCAASTPIISIAYMGWYRQISEKERQLVATINSGGKTYYADSVKGRFTISRDNAKNTLYLQMNMLKPEDTGMYYCAASNKDYNDYDPDWGQGTQVTVSS |
| 1.69 | 1.71 |  |  |  |  |  |  |  | M191 (VHH, Nanoantibody in TG1 supernatant in the screening ELISA; also called clone M191) VHH: QVQLVESGGGLVQAGGSLRLSCAASASMGSISNMGWYRQAPGKERGNERNLVATIGSDGRTYYADSVKGRFTISRDNVKNTMILQMNFLKPEDTAMYYCAVEDRQRPGTENYYWGQGTQVTVSS |
|  |  | 0.264 | 1.82e-05 | 69000 |  |  |  |  | M2339-IgG4 (antibody, V domains shown, also called M2339 heavy chain antibody) VH: QLQLGASGGGLVQPGGSLRLSCALSGFTLRELDEFAIGWFRQAPGKEREGVSCISGTGGITHYADSVKGRFTISRDIAKTTVYLQMNSLNSEDTAVYYCAADERCTDRLIRPPTYWGQGTQVTVSS |
|  |  |  |  |  |  |  |  | 2.15 | M2339 (VHH, Nanoantibody in TG1 supernatant in the screening ELISA; also called clone M2339) VHH: QLQLGASGGGLVQPGGSLRLSCALSGFTLRELDEFAIGWFRQAPGKEREGVSCISGTGGITHYADSVKGRFTISRDIAKTTVYLQMNSLNSEDTAVYYCAADERCTDRLIRPPTYWGQGTQVTVSS |
|  |  | 0.04 | 5.37e-05 | 1.4e+06 | 2.79 | 6.24 | 1.85 |  | M129-IgG4 (antibody, V domains shown, also called M129 heavy chain antibody) VH: QVQLVESGGGSAQAGGSLILSCVASANLFTIDALGWYRQAPGPKRELVAAISSGGNKYYADAVKGRFTISRDTLTKTMWLQMNNLKPEDTAMYYCAAEDYGLGQRSWGMGTQVTVSS |
| 1.21 | 1.69 |  |  |  |  |  |  |  | M197 (VHH, Nanoantibody in TG1 supernatant in the screening ELISA; also called clone M197) VHH: EVQLVESGGGLVQAGGSLRLSCAASGSHFGLNVVGWYRQAPGKQRELVASIGNSGRTTDYADSVKGRFTISKDNAQNTIYLQMNNLKPEDTAMYRCHLRVSVERGYWGQGTQVTVSS |
|  |  | 0.09 | 5.4e-05 | 592000 | 5.37 | 4.15 | 1.05 |  | M156-IgG4 (antibody, V domains shown, also called M156 heavy chain antibody) VH: QVQLVESGGGLVQAGGSLRLSCAVSGISFEYYAIGWFRQAPGKEREAVSCTTSGTTSGGGVTDYADSLKGRFTISRDVAKNTVYLQMNNLTPEDTAVYYCAADIHCRGYVLFVPSDFGNWGQGTQVTVSS |
